Measurements from patent US20110171242A1.

Biological target: LTβR (whole, in cells) (human) (UniProt P36941)
Assay: cell-based or functional assay

- IC50 for inhibition of HCMV pp28 expression (western blot): 1 nM
- inhibition of the cytopathic effect of HCMV, against LTα and LIGHT: 10 fold
Substance: recombinant soluble LTα1β2 (from UniProt P01374 35-205; Q06643 49-244) (ligand)
